Assay results taken from publication PMC12614216.

Columns and labels:
[1] = biological target: OrfL (OB-fold protein encoded by ICESt3 of Streptococcus thermophilus), purified, untagged (Streptococcus thermophilus (ICESt3)); test: SEC-MALS; isolated OrfM or OrfL at 30 µM; Superdex 200 Increase 10/300 GL; 20 mM Tris-HCl pH 7.5, 150 mM NaCl; monomer and dimer
[2] = biological target: OrfL (OB-fold protein encoded by ICESt3 of Streptococcus thermophilus), purified, untagged (Streptococcus thermophilus (ICESt3)); test: ITC; OrfM at 280 µM injected into OrfL at 28 µM; 298 K; 20 mM Tris-HCl pH 7.5, 300 mM NaCl; single binding site model
[3] = biological target: OrfL (OB-fold protein encoded by ICESt3 of Streptococcus thermophilus), purified, untagged (Streptococcus thermophilus (ICESt3)); test: SEC-MALS; OrfL and OrfM mixed at 1:1 and 2:1 OrfL:OrfM molar ratios; Superdex 200 Increase 10/300 GL; 20 mM Tris-HCl pH 7.5, 150 mM NaCl
[4] = biological target: OrfL (OB-fold protein encoded by ICESt3 of Streptococcus thermophilus), purified, untagged (Streptococcus thermophilus (ICESt3)); test: switchSENSE (fluorescence proximity sensing); OrfL covalently coupled to a 48-mer DNA nanolever on the chip; OrfM injected at 0.625 to 10 µM; PE40 buffer (10 mM NaP pH 7.4, 40 mM NaCl, 0.05% Tween 20); 25°C
[5] = biological target: OrfM (OB-fold protein encoded by ICESt3 of Streptococcus thermophilus), purified, untagged (Streptococcus thermophilus (ICESt3)); test: SEC-MALS; isolated OrfM or OrfL at 30 µM; Superdex 200 Increase 10/300 GL; 20 mM Tris-HCl pH 7.5, 150 mM NaCl; monomer and dimer

Row | stoichiometry N [1] | Ka [2] [M⁻¹] | Kd [2] [nM] | dH [2] [kcal/mol] | stoichiometry N [2] | fraction of the sample found as the complex (1:1 ratio) [3] [%] | stoichiometry N [3] | Kd [4] [nM] | koff [4] [s⁻¹] | kon [4] [M⁻¹ s⁻¹] | fraction of the injected protein found as dimer [5] [%] | stoichiometry N [5] | Substance
1 | 2 |  |  |  |  |  |  |  |  |  |  |  | OrfL (OB-fold protein encoded by ICESt3 of Streptococcus thermophilus), purified, untagged (natural protein)
2 |  | 7.1e+06 | 140 | -35.9 | 0.87 | 92 | 1 | 311 | 0.019 | 62000 | 5 | 2 | OrfM (OB-fold protein encoded by ICESt3 of Streptococcus thermophilus), purified, untagged (natural protein)
